Consider two molecules from article PMC6131271.

For test [1], the target named is III-23, GPC(GPP)5GPOGPSGPRGQOGVMGFOGPKGNDGAO(GPP)5GPC. As to the kind of experiment: ELISA; control wells coated with III-23 or BSA; VWF-A3-GST at 5 μg/ml in PBS 0.1% BSA, room temperature; anti-GST HRP, A450. On the technique in general: ELISA stands for enzyme-linked immunosorbent assay.
The target in test [2] is Diaz-ES-VWFIIINle (diazirine-bearing end-stapled triple-helical peptide of three VWFIIINle strands). The experiment in a line: ELISA; 100% EDC/NHS crosslinked collagen films in 96-well plates, without peptide or incubated with peptide at 5 μg/ml for 30 min, then UV (365 nm) for 5 min, washed with citrate buffer pH 3 and PBS; VWF-A3-GST at 5 μg/ml in PBS 0.1% BSA, room temperature; anti-GST HRP, A450.

The target in test [3] is bovine Achilles tendon collagen type I film, 100% EDC/NHS crosslinked (bovine) (UniProt P02453). The test is described as above.
Test [4] concerns the target Diaz-ES-VWFIIINle (diazirine-bearing end-stapled triple-helical peptide of three VWFIIINle strands). As to the kind of experiment: ELISA; 100% EDC/NHS crosslinked collagen films in 96-well plates, without peptide or incubated with peptide at 5 μg/ml, left in the dark (no UV), washed with citrate buffer pH 3 and PBS; VWF-A3-GST at 5 μg/ml in PBS 0.1% BSA, room temperature; anti-GST HRP, A450.

Test [5] addresses bovine Achilles tendon collagen type I film, 100% EDC/NHS crosslinked (bovine) (UniProt P02453). The test is described as above.
Test [6] deals with Diaz-ES-VWFIIINle (diazirine-bearing end-stapled triple-helical peptide of three VWFIIINle strands).
For test [7], the target named is bovine Achilles tendon collagen type I film, 100% EDC/NHS crosslinked (bovine) (UniProt P02453).
Test [8] has as its target bovine Achilles tendon collagen type I, non-crosslinked film (bovine) (UniProt P02453). The experiment in a line: ELISA; collagen films in 96-well plates, EDC/NHS crosslinked 0% to 100%, blocked with PBS 5% BSA; VWF A3-GST at 5 μg/ml in PBS 0.1% BSA, room temperature (2 h in the methods, 1 h in the legend); anti-GST HRP, TMB, A450.
Test [9] deals with bovine Achilles tendon collagen type I film, 100% EDC/NHS crosslinked (bovine) (UniProt P02453). The test is described as above.
Test [10] has as its target bovine Achilles tendon collagen type I film, 50% EDC/NHS crosslinked (bovine) (UniProt P02453). Described as above.
The target of test [11] is Diaz-ES-VWFIIINle (diazirine-bearing end-stapled triple-helical peptide of three VWFIIINle strands). As to the kind of experiment: ELISA; 100% EDC/NHS crosslinked collagen films in 96-well plates, without peptide or incubated with peptide at 5 μg/ml for 30 min, then UV (365 nm) for 5 min, washed with citrate buffer pH 3 and PBS; DDR2-Fc at 1 μg/ml in PBS 0.1% BSA and 0.05% Tween-20, 2 h, room temperature; anti-Fc HRP, A450.

The target in test [12] is bovine Achilles tendon collagen type I film, 100% EDC/NHS crosslinked (bovine) (UniProt P02453). The description is as above.
The target of test [13] is All other peptide treatments. The experiment in a line: ELISA; as a6 and a7, the three other peptide treatments taken together (VWFIIINle with UV, VWFIIINle without UV, Diaz-ES-VWFIIINle without UV) on 100% crosslinked films; DDR2-Fc at 1 μg/ml; A450.
The target in test [14] is bovine Achilles tendon collagen type I, non-crosslinked film (bovine) (UniProt P02453). As to the kind of experiment: ELISA; collagen films in 96-well plates, EDC/NHS crosslinked 0% to 100%, blocked with PBS 5% BSA; DDR2-Fc at 1 μg/ml in PBS 0.1% BSA with 0.05% Tween-20, 2 h, room temperature; anti-Fc HRP, TMB, A370 read before addition of sulfuric acid.
In test [15] the target is bovine Achilles tendon collagen type I film, 100% EDC/NHS crosslinked (bovine) (UniProt P02453). The test is described as above.
For test [16] the target is unchanged. The experiment in a line: ELISA; 100% EDC/NHS crosslinked collagen films in 96-well plates, without peptide or incubated with peptide at 5 μg/ml, left in the dark (no UV), washed with citrate buffer pH 3 and PBS; DDR2-Fc at 1 μg/ml in PBS 0.1% BSA and 0.05% Tween-20, 2 h, room temperature; anti-Fc HRP, A450.

As for “recombinant GST-tagged human VWF-A3 domain (from UniProt P04275 23-2813) (domain or fragment)”, the A450 in test [1] was 1.42 absorbance; in test [2], 1.8 absorbance; in [3], 0.24 absorbance; in test [4], 1.25 absorbance; in [5], 0.26 absorbance; in test [8], 0.57 absorbance. Further, the A450 is 0.13 absorbance in test [9] and 0.12 absorbance in [10]. In [6], this molecule came in with a platelet surface coverage; human whole blood (full-length plasma VWF) perfused at 1000 s^-1 over 100% crosslinked films with Diaz-ES-VWFIIINle after UV of 42.9%. The same molecule showed a platelet surface coverage; human whole blood (full-length plasma VWF) perfused at 1000 s^-1 over 100% crosslinked films without peptide in test [7] of 5.6%.

B1: Recombinant soluble protein comprising the entire DDR2 extracellular region, fused to the Fc-sequence of human IgG2 (Fc fusion)
chain: KAQVNPAICRYPLGMSGGQIPDEDITASSQWSESTAAKYGRLDSEEGDGAWCPEIPVEPDDLKEFLQIDLHTLHFITLVGTQGRHAGGHGIEFAPMYKINYSRDGTRWISWRNRHGKQVLDGNSNPYDIFLKDLEPPIVARFVRFIPVTDHSMNVCMRVELYGCVWLDGLVSYNAPAGQQFVLPGGSIIYLNDSVYDGAVGYSMTEGLGQLTDGVSGLDDFTQTHEYHVWPGYDYVGWRNESATNGYIEIMFEFDRIRNFTTMKVHCNNMFAKGVKIFKEVQCYFRSEASEWEPNAISFPLVLDDVNPSARFVTVPLHHRMASAIKCQYHFADTWMMFSEITFQSDAAMYNNSEALPTSPMAPTTYDPMLKVDDSNTR
Turning to B1, the A450 in test [11] is 1.9 absorbance; in test [12] it was 0.61 absorbance; in [13], 1.16 to 1.43 absorbance; in [16], 0.61 absorbance. The A370 in [14] turned out to be 0.32 absorbance; in [15], 0.18 absorbance.
